In patent publication US20170065702A1 (CANGENE, published 2017):

B1: CAN30G1 (antibody, V domains shown)
VH: QIQLVQSGPELKKPGETVKISCKASGYTFTNYGMNWVKQAPGKGLKWMGWINTYTGKPTYVDDFKGRFAFSLETSANTAYLQINNLKNEDTATYFCESGGYDEDYWGQGTTLTVSS
VL: ENVLTQSPAIMSASPGEKVTMTCSASSSVTYMHWYQQKSSTSPKLWIYDTSKLASGVPGRFSGSGSGNSYSLTISSMEAEDVATYYCFQGSGYPYTFGGGTKLEIK
B2: CAN54G2 (antibody, V domains shown)
VH: QVQLQQSGTELVRPGTSVKISCKASGYDFTNFWLGWIKQRPGHGLEWIGDIYPGGDNTYYNEKFKGKVTLTADKSSNTAYMQFSSLTSEDSAVYFCFMILYTLDYWGQGTSVTVSS
VL: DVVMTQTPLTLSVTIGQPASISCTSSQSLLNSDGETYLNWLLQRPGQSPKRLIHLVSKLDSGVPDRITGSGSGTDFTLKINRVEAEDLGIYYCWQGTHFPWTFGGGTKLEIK
B3: CAN30G3 (antibody, V domains shown)
VH: QVQLKESGPGLVAPSQSLSITCTVSGFSLTDYGITWIRQPPGKGLEWLGVIWGGGSAYYNLVLKSRLSISKDNSKSQVFLKMNSLQTDDTAMYYCAKHRTLITTAMDYWGQGISVTVSS
VL: DVLMTQTPLSLPVSLGDQASISCRSSQNIVHSNGNTYLEWYLQKSGQSPKLLIYKVSNRFSGVPDRFSGSGSGTDFTLKISRVEAEDLGVYYCFQGSHFPWTFGGGTKLEIK
B4: CAN30G4 (antibody, V domains shown)
VH: EVKLVESGGGLVKSGGSLKLSCAVSGFTFSTYAMSWVRQIPEKRLEWVATISNGGSYIYYSDSVKGRFTISRDNAKNTLYLQMSSLRSEDTAMYYCARHRESYRYDWFAYWGQGTLVTVSA
VL: DVLMTQTPLSLPVSLGDQASISCRSSQNIVHSDGNTYLEWYLQKPGQSPKLLIYKFSNRFSGVPDRFSGSGSGTDFTLKISRVEAEDLGVYYCFQGSHVPPTFGAGTKLELK
B5: CAN30G5 (antibody, V domains shown)
VH: EVQLVESGGGLVQPKGSLKLSCAASGFAFNSYAMHWVCQAPGKGLEWVARIRIKSGNYATSYAGSVTDRFTVSRDDSQNLFYLQMNNLKTEDTAMYYCVREWEGAMDYWGQGTSVTVSS
VL: DIVLTQSPLSLPVSLGDQASISCRSSQSLVHSNGNTYLHWYLQKPGQSPNLLIYKVSNRFSGVPDRFSGSGSGTDFTLKISRVEAEDLGVYFCSQSTHVPWTFGGGTKLEIK
B6: CAN40G1 (antibody, V domains shown)
VH: EVQLQQSGPELVKPGASVKISCRTSGYTFTEYTIHWVKQSRGKSLEWIGGINPNHGGTLYNQKFKVKATLTVDKSSSTAYMELRSLTSEDSAVYYCARFTYDYWGQGTTLTVSS
VL: DIVLTQSPASLAVSLGQRASISCKASQSVDHDGDSYMNWYQQKPGQPPKLLIYATSNLESGIPARFSGSGSGTDFTLNIHPVEEEDAATYYCQQSYEVPLTFGAGTKLELK

What was measured:
MARV Angola GPe[change] = MARV Angola GPe[change] (Marburg virus, Angola strain, UniProt Q1PD50 19-636); test: cross reactivity with GPeΔmuc, summary table
MARV Musoke GPe[change] = MARV Musoke GPe[change] (Marburg virus, Musoke strain, UniProt P35253 19-636); test: cross reactivity with GPeΔmuc, summary table

| Binder | binding result (MARV Angola GPe[change]) | binding result (MARV Musoke GPe[change]) |
| --- | --- | --- |
| B1 | binds | binds |
| B2 | binds | binds |
| B3 | binds | binds |
| B4 | binds | binds |
| B5 | binds | binds |
| B6 | binds | binds |
